Source: the supplement of paper PMC5998384

Assays:
HeLa Kyoto [1] = test: solubility in G1/S (NP-40 vs SDS abundance) (log2 ratio); higher = more soluble; conditions: cell cycle stage: G1/S
HeLa Kyoto [2] = test: solubility change mitosis vs G1/S (difference of NP-40 vs SDS log2 ratios) (log2 ratio difference); higher = more soluble in mitosis
HeLa Kyoto [3] = test: melting temperature (median over replicates), in situ; higher = more thermally stable
HeLa Kyoto [4] = test: thermal stability score vs G1/S (z-score of summed log2 fold changes over temperatures); higher = more thermally stable than in G1/S
[5] = cell cycle stage: early G1 (4.5 h after nocodazole release)
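Wherever melting temperature (median over replicates), in situ is given: HeLa Kyoto cells synchronized by double thymidine or nocodazole block, proteins quantified by TMT10plex mass spectrometry, three independent biological replicates.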
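Wherever solubility change mitosis vs G1/S (difference of NP-40 vs SDS log2 ratios) is given: synchronized HeLa Kyoto cells (double thymidine block for G1/S, nocodazole release for mitosis), protein amounts in NP-40 versus SDS lysates quantified by mass spectrometry, three biological replicates.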
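Wherever solubility in G1/S (NP-40 vs SDS abundance) is given: HeLa Kyoto cells arrested at G1/S by double thymidine block, proteins quantified by TMT10plex mass spectrometry in mild NP-40 versus SDS extracts, three biological replicates.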
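Wherever thermal stability score vs G1/S (z-score of summed log2 fold changes over temperatures) is given: synchronized HeLa Kyoto cells, proteins quantified by TMT10plex mass spectrometry, three biological replicates, mitosis taken 0.5 h after nocodazole release, G1/S directly after double thymidine block.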

Sequence	solubility in G1/S (log2) (HeLa Kyoto [1])	solubility change mitosis (log2) (HeLa Kyoto [2])	melting temperature (HeLa Kyoto [3]; cell cycle stage: G1/S) [°C]	melting temperature (HeLa Kyoto [3]; cell cycle stage: mitosis) [°C]	thermal stability score (HeLa Kyoto [4]; [5])	thermal stability score (HeLa Kyoto [4]; cell cycle stage: mitosis)
MFHLRTCAAKLRPLTASQTVKTFSQNRPAAARTFQQIRCYSAPVAAEPFLSGTSSNYVEEMYCAWLENPKSVHKSWDIFFRNTNAGAPPGTAYQSPLPLSRGSLAAVAHAQSLVEAQPNVDKLVEDHLAVQSLIRAYQIRGHHVAQLDPLGILDADLDSSVPADIISSTDKLGFYGLDESDLDKVFHLPTTTFIGGQESALPLREIIRRLEMAYCQHIGVEFMFINDLEQCQWIRQKFETPGIMQFTNEEKRTLLARLVRSTRFEEFLQRKWSSEKRFGLEGCEVLIPALKTIIDKSSENGVDYVIMGMPHRGRLNVLANVIRKELEQIFCQFDSKLEAADEGSGDVKYHLGMYHRRINRVTDRNITLSLVANPSHLEAADPVVMGKTKAEQFYCGDTEGKKVMSILLHGDAAFAGQGIVYETFHLSDLPSYTTHGTVHVVVNNQIGFTTDPRMARSSPYPTDVARVVNAPIFHVNSDDPEAVMYVCKVAAEWRSTFHKDVVVDLVCYRRNGHNEMDEPMFTQPLMYKQIRKQKPVLQKYAELLVSQGVVNQPEYEEEISKYDKICEEAFARSKDEKILHIKHWLDSPWPGFFTLDGQPRSMSCPSTGLTEDILTHIGNVASSVPVENFTIHGGLSRILKTRGEMVKNRTVDWALAEYMAFGSLLKEGIHIRLSGQDVERGTFSHRHHVLHDQNVDKRTCIPMNHLWPNQAPYTVCNSSLSEYGVLGFELGFAMASPNALVLWEAQFGDFHNTAQCIIDQFICPGQAKWVRQNGIVLLLPHGMEGMGPEHSSARPERFLQMCNDDPDVLPDLKEANFDINQLYDCNWVVVNCSTPGNFFHVLRRQILLPFRKPLIIFTPKSLLRHPEARSSFDEMLPGTHFQRVIPEDGPAAQNPENVKRLLFCTGKVYYDLTRERKARDMVGQVAITRIEQLSPFPFDLLLKEVQKYPNAELAWCQEEHKNQGYYDYVKPRLRTTISRAKPVWYAGRDPAAAPATGNKKTHLTELQRLLDTAFDLDVFKNFS [OGDH]	0.0621	-0.178	52	51.7	-0.752	-1.63
MFIKGRAPRAPPRERRRATRGGLRQVVAPPRALGSTSRPHFRRASVCRRRCRKSGGLLAASRKMAAAAVNGAAGFSSSGPAATSGAVLQAATGMYEQLKGEWNRKSPNLSKCGEELGRLKLVLLELNFLPTTGTKLTKQQLILARDILEIGAQWSILRKDIPSFERYMAQLKCYYFDYKEQLPESAYMHQLLGLNLLFLLSQNRVAEFHTELERLPAKDIQTNVYIKHPVSLEQYLMEGSYNKVFLAKGNIPAESYTFFIDILLDTIRDEIAGCIEKAYEKILFTEATRILFFNTPKKMTDYAKKRGWVLGPNNYYSFASQQQKPEDTTIPSTELAKQVIEYARQLEMIV [PSMD8]	0.278	0.0108	53.4	54.5	-1.02	-0.0502
MFKVIQRSVGPASLSLLTFKVYAAPKKDSPPKNSVKVDELSLYSVPEGQSKYVEEARSQLEESISQLRHYCEPYTTWCQETYSQTKPKMQSLVQWGLDSYDYLQNAPPGFFPRLGVIGFAGLIGLLLARGSKIKKLVYPPGFMGLAASLYYPQQAIVFAQVSGERLYDWGLRGYIVIEDLWKENFQKPGNVKNSPGTK [APOO]	0.444	0.185	54.8	56	-1.86	-2.5
MFLPHMNHLTLEQTFFSQVLPKTVKLFDDMMYELTSQARGLSSQNLEIQTTLRNILQTMVQLLGALTGCVQHICATQESIILENIQSLPSSVLHIIKSTFVHCKNSESVYSGCLHLVSDLLQALFKEAYSLQKQLMELLDMVCMDPLVDDNDDILNMVIVIHSLLDICSVISSMDHAFHANTWKFIIKQSLKHQSIIKSQLKHKDIITSLCEDILFSFHSCLQLAEQMTQSDAQDNADYRLFQKTLKLCRFFANSLLHYAKEFLPFLSDSCCTLHQLYLQIHSKFPPSLYATRISKAHQEEIAGAFLVTLDPLISQLLTFQPFMQVVLDSKLDLPCELQFPQCLLLVVVMDKLPSQPKEVQTLWCTDSQVSETTTRISLLKAVFYSFEQCSGELSLPVHLQGLKSKGKAEVAVTLYQHVCVHLCTFITSFHPSLFAELDAALLNAVLSANMITSLLAMDAWCFLARYGTAELCAHHVTIVAHLIKSCPGECYQLINLSILLKRLFFFMAPPHQLEFIQKFSPKEAENLPLWQHISFQALPPELREQTVHEVTTVGTAECRKWLSRSRTLGELESLNTVLSALLAVCNSAGEALDTGKQTAIIEVVSQLWAFLNIKQVADQPYVQQTFSLLLPLLGFFIQTLDPKLILQAVTLQTSLLKLELPDYVRLAMLDFVSSLGKLFIPEAIQDRILPNLSCMFALLLADRSWLLEQHTLEAFTQFAEGTNHEEIVPQCLSSEETKNKVVSFLEKTGFVDETEAAKVERVKQEKGIFWEPFANVTVEEAKRSSLQPYAKRARQEFPWEEEYRSALHTIAGALEATESLLQKGPAPAWLSMEMEALQERMDKLKRYIHTLG [C1ORF112]	-0.208	-0.0761	47.9	48.9	0.547	1.23
MFLTRSEYDRGVNTFSPEGRLFQVEYAIEAIKLGSTAIGIQTSEGVCLAVEKRITSPLMEPSSIEKIVEIDAHIGCAMSGLIADAKTLIDKARVETQNHWFTYNETMTVESVTQAVSNLALQFGEEDADPGAMSRPFGVALLFGGVDEKGPQLFHMDPSGTFVQCDARAIGSASEGAQSSLQEVYHKSMTLKEAIKSSLIILKQVMEEKLNATNIELATVQPGQNFHMFTKEELEEVIKDI [PSMA5]	0.313	-0.0172	55.4	53.9	1.94	2.76
MFLVNSFLKGGGGGGGGGGGLGGGLGNVLGGLISGAGGGGGGGGGGGGGGGGGGGGTAMRILGGVISAISEAAAQYNPEPPPPRTHYSNIEANESEEVRQFRRLFAQLAGDDMEVSATELMNILNKVVTRHPDLKTDGFGIDTCRSMVAVMDSDTTGKLGFEEFKYLWNNIKRWQAIYKQFDTDRSGTICSSELPGAFEAAGFHLNEHLYNMIIRRYSDESGNMDFDNFISCLVRLDAMFRAFKSLDKDGTGQIQVNIQEWLQLTMYS [CAPNS1]	0.395	-0.0652	55.4	55	1.02	1.65
MFRGLSSWLGLQQPVAGGGQPNGDAPPEQPSETVAESAEEELQQAGDQELLHQAKDFGNYLFNFASAATKKITESVAETAQTIKKSVEEGKIDGIIDKTIIGDFQKEQKKFVEEQHTKKSEAAVPPWVDTNDEETIQQQILALSADKRNFLRDPPAGVQFNFDFDQMYPVALVMLQEDELLSKMRFALVPKLVKEEVFWRNYFYRVSLIKQSAQLTALAAQQQAAGKEEKSNGREQDLPLAEAVRPKTPPVVIKSQLKTQEDEEEISTSPGVSEFVSDAFDACNLNQEDLRKEMEQLVLDKKQEETAVLEEDSADWEKELQQELQEYEVVTESEKRDENWDKEIEKMLQEEN [SYAP1]	0.391	0.264	53.2	53.5	-0.579	-1.49
MFSKFTSILQHAVEALAPSLPLQEDFVYHWKAITHYYIETSDDKAPVTDTNIPSHLEQMLDILVQEENERESGETGPCMEYLLHHKILETLYTLGKADCPPGMKQQVLVFYTKLLGRIRQPLLPHINVHRPVQKLIRLCGEVLATPTENEEIQFLCIVCAKLKQDPYLVNFFLENKMKSLASKGVPNVISEDTLKGQDSLSTDTGQSRQPEELSGATGMEQTELEDEPPHQMDHLSTSLDNLSVTSLPEASVVCPNQDYNLVNSLLNLTRSPDGRIAVKACEGLMLLVSLPEPAAAKCLTQSTCLCELLTDRLASLYKALPQSVDPLDIETVEAINWGLDSYSHKEDASAFPGKRALISFLSWFDYCDQLIKEAQKTAAVALAKAVHERFFIGVMEPQLMQTSEMGILTSTALLHRIVRQVTSDVLLQEMVFFILGEQREPETLAEISRHPLRHRLIEHCDHISDEISIMTLRMFEHLLQKPNEHILYNLVLRNLEERNYTEYKPLCPEDKDVVENGLIAGAVDLEEDPLFTDISPENTLPNQEWLSSSPPATPDHPKNDGKTEVHKIVNSFLCLVPDDAKSSYHVEGTGYDTYLRDAHRQFRDYCAICLRWEWPGSPKALEKCNLEAAFFEGHFLKVLFDRMGRILDQPYDVNLQVTSVLSRLSLFPHPHIHEYLLDPYVNLAPGCRSLFSVIVRVVGDLMLRIQRIQDFTPKLLLVRKRLLGLEPEGPIIDHITLLEGVIVLEEFCKELAAIAFVKYHASSTP [FAM160B1]	0.0585	-0.212	52.1	51.1	-0.501	-0.078
MFSRAGVAGLSAWTLQPQWIQVRNMATLKDITRRLKSIKNIQKITKSMKMVAAAKYARAERELKPARIYGLGSLALYEKADIKGPEDKKKHLLIGVSSDRGLCGAIHSSIAKQMKSEVATLTAAGKEVMLVGIGDKIRGILYRTHSDQFLVAFKEVGRKPPTFGDASVIALELLNSGYEFDEGSIIFNKFRSVISYKTEEKPIFSLNTVASADSMSIYDDIDADVLQNYQEYNLANIIYYSLKESTTSEQSARMTAMDNASKNASEMIDKLTLTFNRTRQAVITKELIEIISGAAALD [ATP5C1]	0.283	-0.0222	58	56.5	-0.727	-0.47
MFVARSIAADHKDLIHDVSFDFHGRRMATCSSDQSVKVWDKSESGDWHCTASWKTHSGSVWRVTWAHPEFGQVLASCSFDRTAAVWEEIVGESNDKLRGQSHWVKRTTLVDSRTSVTDVKFAPKHMGLMLATCSADGIVRIYEAPDVMNLSQWSLQHEISCKLSCSCISWNPSSSRAHSPMIAVGSDDSSPNAMAKVQIFEYNENTRKYAKAETLMTVTDPVHDIAFAPNLGRSFHILAIATKDVRIFTLKPVRKELTSSGGPTKFEIHIVAQFDNHNSQVWRVSWNITGTVLASSGDDGCVRLWKANYMDNWKCTGILKGNGSPVNGSSQQGTSNPSLGSTIPSLQNSLNGSSAGRKHS [SEH1L]	-0.79	0.295	54.8	51.6	-3.19	-4.18
MFVQEEKIFAGKVLRLHICASDGAEWLEEATEDTSVEKLKERCLKHCAHGSLEDPKSITHHKLIHAASERVLSDARTILEENIQDQDVLLLIKKRAPSPLPKMADVSAEEKKKQDQKAPDKEAILRATANLPSYNMDRAAVQTNMRDFQTELRKILVSLIEVAQKLLALNPDAVELFKKANAMLDEDEDERVDEAALRQLTEMGFPENRATKALQLNHMSVPQAMEWLIEHAEDPTIDTPLPGQAPPEAEGATAAASEAAAGASATDEEARDELTEIFKKIRRKREFRADARAVISLMEMGFDEKEVIDALRVNNNQQNAACEWLLGDRKPSPEELDKGIDPDSPLFQAILDNPVVQLGLTNPKTLLAFEDMLENPLNSTQWMNDPETGPVMLQISRIFQTLNRT [UBAC1]	0.313	-0.0991	50.9	50.6	1.16	0.844
MGAAHSASEEVRELEGKTGFSSDQIEQLHRRFKQLSGDQPTIRKENFNNVPDLELNPIRSKIVRAFFDNRNLRKGPSGLADEINFEDFLTIMSYFRPIDTTMDEEQVELSRKEKLRFLFHMYDSDSDGRITLEEYRNVVEELLSGNPHIEKESARSIADGAMMEAASVCMGQMEPDQVYEGITFEDFLKIWQGIDIETKMHVRFLNMETMALCH [TESC]	0.101	0.0705	51.1	51.7	0.145	1.31
MGAFLDKPKMEKHNAQGQGNGLRYGLSSMQGWRVEMEDAHTAVIGLPSGLESWSFFAVYDGHAGSQVAKYCCEHLLDHITNNQDFKGSAGAPSVENVKNGIRTGFLEIDEHMRVMSEKKHGADRSGSTAVGVLISPQHTYFINCGDSRGLLCRNRKVHFFTQDHKPSNPLEKERIQNAGGSVMIQRVNGSLAVSRALGDFDYKCVHGKGPTEQLVSPEPEVHDIERSEEDDQFIILACDGIWDVMGNEELCDFVRSRLEVTDDLEKVCNEVVDTCLYKGSRDNMSVILICFPNAPKVSPEAVKKEAELDKYLECRVEEIIKKQGEGVPDLVHVMRTLASENIPSLPPGGELASKRNVIEAVYNRLNPYKNDDTDSTSTDDMW [PPM1A]	0.243	-0.159	51.9	52	0.1	-0.132
